In the RNAGym collection of RNA variant scans (doi:10.1073/pnas.2313332121):
Fewer inactive variants are shown than the library holds.

B1: TPR 5TU (parent)
chain: GGAUCUUCUCGAUCUAACAAAAAAGACAAAUCUGCCACAAAGCUUGAGAGCAUCUUCGGAUGCAGAGGCGGCAGCCUUCGGUGGCGCGAUAGCGCCAACGUUCUCAACUAUGACACGCAAAACGCGUGCUCCGUUGAAUGGAGUUUAUCAUG

Variants of: B1
Assay: polymerase ribozyme fitness, log enrichment relative to wild type (log ratio); higher = more active; in vitro selection for triplet polymerase activity
Method in brief: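 For each subunit of a heterodimeric triplet polymerase ribozyme, a mutant library was built by PCR and transcribed, then taken through a single in vitro selection round in triplicate. Selection involved annealing to a biotinylated primer, the partner subunit and triplets, incubation frozen at −7 °C, gel excision of extended constructs, capture on streptavidin beads and RT-PCR. Genotypes were retained after Illumina sequencing of inputs and outputs only with ≥10 input reads and ≥1 read in each output. Fitness is defined as the logarithm of a genotype's enrichment relative to wild-type enrichment, using inverse-variance-weighted averages across replicates, with the logarithm taken to base 2.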

Variant | polymerase ribozyme fitness (log ratio)
C96U C105G U144A | -1.81
C95U C149G | -3.59
C95U C149U | -0.647
C93U G124U | -2.66
C93U G124A | -1.3
G92U A138U | -4.2
C87U A98U | -1.16
C87U U109G U127C U135A | -4
G92A C96A | -3.11
G88C C118G G140A | ≤ -4.2
C93G A98G | -2.91
G92A U145G | -2.54
A91G G92U G140A | ≤ -4.2
C96G U111C | -3.62
C87A C99U | ≤ -4.2
C87G C125U | ≤ -4.2
A89C U127A | -4.16
U90C G94U A120U G124U | ≤ -4.2
G94C C99U | -0.0105
G94C A150G | -1.6
A89C C131A | -3.23
C87A C95A | ≤ -4.2
C87U C125U | -2.13
C87U C125G | -1.53

Variant | polymerase ribozyme fitness (log ratio)
C87A G126U | ≤ -4.2
C87A G126C | -4.16
C93A U135C | -3.56
C87G C114U | -4.08
G92A A121U | -2.71
C96A A122U | -0.0649
G88C C105A G117C G141A A147U | ≤ -4.2
C95U C125U | -0.278
C96A A138U G140U | ≤ -4.2
C93A G141U | -0.625
A91U G94U C96G A115G G141C | ≤ -4.2
G92U A147U | 0.301
C93A A97G A113G G124U | -4.12
C87A G88C C96U C118U U146C | ≤ -4.2
C96A U104G | -0.932
G94C G140A | -3.95
A91U U148C | -4.1
G88A C93G C108U A120U A137U | ≤ -4.2
C93U C125U U151C G152A | -3.06
U90G G92C | ≤ -4.2
A91C U109C | ≤ -4.2
A91G C105U | -1.66
G92C U127G | -3.67
G92U G141C U146A | -0.994

Variant | polymerase ribozyme fitness (log ratio)
C95U C116G A138G | -3.58
C87U G88C | -3.83
C93U C114A A115C | ≤ -4.2
G88A G126A | -3.7
G94C C103U A119C C125A | -2
G88U C132U | -3.92
C96U C99U | -0.378
C96U C99A | -1.51
A91U A97G A122U A147U | ≤ -4.2
G94A G143C | -2.41
C96G U148G | -4.12
C96G U148C | -1.42
G88A C118U G141U U144A | ≤ -4.2
C93G G143U | -4.04
C87A A119G A137G | ≤ -4.2
C93U A115G | -3
C87U U104A | -0.828
C93A U151A | ≤ -4.2
A89C C93U U135A | -3.55
G88A C93G C96A A110G C123G | ≤ -4.2
C95U G100U U148G | ≤ -4.2
G88C U144G | -3.7
C96U A115U U145A | -1.79
C95U C116G | 0.0419

Variant | polymerase ribozyme fitness (log ratio)
G94A A121U C132G U146A A150G | ≤ -4.2
C87U A110U A120C U135A G136A | ≤ -4.2
C93U U148G | -3.7
G88A A97U U102C | ≤ -4.2
G92A C114U | -3.92
C93A A121G U144A | -1.18
G94A G124A U146A | -1.09
G88A C96U C108G | ≤ -4.2
C93G A115G | -4.09
U90A C131A G143A | -4.19
C93G A121C | -3.39
C95U U101C | -0.173
C87A C95U A107U | ≤ -4.2
G92U G136A | 0.353
A91U G141C | -4.05
A91U G141U | ≤ -4.2
C96U C114U | -2.66
C93U A120G | -0.649
C93U U104A | -1.88
C87A U90G C99G | ≤ -4.2
C93U A119U A121C | -1.6
C87U A113U A122G G136U U144C | -3.67
A89G C95A A137C | -4.09
G92U C125A | -1.82

Variant | polymerase ribozyme fitness (log ratio)
G92C C123U | -2.47
G88A U109C A142C | -4.19
C87G A97U | ≤ -4.2
G92U C99G | -1.57
G94C U101A C105G G141C | ≤ -4.2
C87U U102G A138C | ≤ -4.2
C87U G92U A97U C99G | ≤ -4.2
G94A C125U | -1.67
C87U A150G | -1.2
C93G | -3.35
C93A | -2.17
C93U | -1.34
C96G C103A | -2.09
C87U A120C G152U | -3.33
A89G A119C | -1.39
G88U C93A | -3.73
G88A A150C | ≤ -4.2
G94A C105G | -1.68
G88A C96U | -3.43
G94A C116U A122U | -0.787
G94A A137U | -3.87
C87G G88C G136A | ≤ -4.2
G94C U127A | -3.75
C87U G136U | -2.59

Variant | polymerase ribozyme fitness (log ratio)
G92U C105G C125U A137G | -3.35
G94C C103U | -0.0253
G92C C114U U151G | -4.12
G92A C95A | -3.27
C93G G140A | ≤ -4.2
A89G C108U | -3.7
C96A A113U U144A | -2.58
G94C C96U | -1.08
A91C A115G | -4.07
C87G A91C A122G | ≤ -4.2
A89U A115G | -1.6
C87U A113U C116U | -1.99
G88A U104G | ≤ -4.2
C87U A142U | -0.783
C93A C125G | -2.62
A91G C96U | -3.04
G92A C103U C116U A121G | -3.47
G88U C99A U146C | ≤ -4.2
C93G C105A U135A | ≤ -4.2
C95A A98U U104G A106C | ≤ -4.2
G92C C95U | -0.22
G94A U102G G133A | ≤ -4.2
A91G A98G U130G C131A A150U | ≤ -4.2
C96A G124U C149G | -3.82

Variant | polymerase ribozyme fitness (log ratio)
G88U A97G A98U G133U A150U | ≤ -4.2
G88A G94U U146C | -4.14
C93U C96G | -1.58
C93U C96U | -3.28
C87U U134C | -0.522
A91U C125A | -3.87
G94U A98U G141A | 0.104
A89C U101C U146A | 0.0757
G88U C96G A106U G143A | ≤ -4.2
G92A G141U | -1.8
C96G A120C U146C | -0.778
C96G G124A | -0.441
C87U G140A | -3.7
A91G A115C | -3.57
G94C G143A | -1.86
C93U A121U | -0.267
A89G A98G C99G | -2.3
G92U C149U | -1.29
A91U U111G U151G | ≤ -4.2
C93A G133C | -4.09
A89G C95A | -2.08
C95A C96G U144C | -2.34
G92C A119G | 0.0407
